The text below walks through data of the supplement of paper PMC9170038.

This series relates to MS2 coat protein. The series can be described thus: apparent KD of MS2 coat protein; designed switch direction (-1 OFF switch, 1 ON switch): 1; higher = weaker reporter binding. The method in brief: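 The apparent KD reported per design is the median over clusters of curve fits to normalised cluster fluorescence. The RNA switches were transcribed on Illumina chips by stalled E. coli RNA polymerase. SNAP-549-labelled MS2 coat protein was titrated from 0.7 or 1.5 nM, doubling up to 3 µM, in Tris-HCl pH 7.5 buffer containing KCl, MgCl2, BSA, DTT, tRNA and Tween-20, with no input, 200 uM small-molecule ligand, or an oligonucleotide input.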

Where [1] appears, read: input ligand: microRNA oligo, concentration not stated.
Setting [2] is: Eterna round: R95, input ligand: FMN 200 uM.
Where [3] appears, read: Eterna round: R95, input ligand: microRNA oligo, concentration not stated.
Setting [4] is: Eterna round: R95, input ligand: none.

On to “AGUCCAGCCUGAGCUGGACAAAAGCAUGUACAUGAGGAUCACCCAUGUCAUGUACAAGCUUUUUGCAAAUCUUAAUA [Mat - hsa-mir-208a - Mod of JL - D34] (Eterna round: R96, puzzle: Sensor for hsa-mir-208a)”, for which the “apparent KD of MS2 coat protein” value is, setting by setting: (input ligand: FMN 200 uM) 0.999 µM; under setting [1], 0.0146 µM; (input ligand: none) 1.18 µM.

“AGUCCAGCCUGAGCUGGACAAAAGCAUGUACAUGAGGAUCACCCAUGUCAUGUACAAGCUUUUUGCAAAUCUUAAUA [Mat - hsa-mir-208a - Mod of JL - D34] (puzzle: Sensor for hsa-mir-208a)”: the “apparent KD of MS2 coat protein” value runs as follows: under setting [2], 0.603 µM; under setting [3], 0.0146 µM; under setting [4], 0.807 µM.

Take “AGUCCAGCCUGAGCUGGACAAAAGCAUGUACAUGAGGAUCACCCAUGUCAUGUACAGGCUUUUUGCUCGUCUUAAUA [Zipper 49 - 7] (puzzle: Sensor for hsa-mir-208a)”: the “apparent KD of MS2 coat protein” value reads like this: under setting [2], 0.433 µM; under setting [3], 0.0168 µM; under setting [4], 0.583 µM.

In the case of “AGUCCAGCCUGAGCUGGACAAAAGCAUGUACAUGAGGAUCACCCAUGUCAUGUGCAAGCUUUUUGCUCGUCUUAAUA [Zipper 49 - 5] (puzzle: Sensor for hsa-mir-208a)”, the “apparent KD of MS2 coat protein” value is, setting by setting: under setting [2], 0.0645 µM; under setting [3], 0.0119 µM; under setting [4], 0.0703 µM.

As to “AGUCCAGCCUGAGCUGGACAAAAGCAUGUACAUGAGGAUCACCCAUGUCGUGUACAAGCUUUUUGCUCGUCUUAAAA [Zipper 46 - 5] (puzzle: Sensor for hsa-mir-208a)”, the “apparent KD of MS2 coat protein” value under setting [2] came out at 0.376 µM, the “apparent KD of MS2 coat protein” value under setting [3] worked out at 0.0124 µM and the “apparent KD of MS2 coat protein” value under setting [4] worked out at 0.334 µM.

On to “AGUCCAGCCUGAGCUGGACAAAAGCAUGUACAUGAGGAUCACCCAUGUUCAUGUACAAGCUUUUUGCUCGAAUUAAA [Mat - hsa-mir-208a - Mod of JL - 53] (puzzle: Sensor for hsa-mir-208a)”, for which the “apparent KD of MS2 coat protein” value runs as follows: under setting [2], 0.558 µM; under setting [3], 0.0154 µM; under setting [4], 0.822 µM.

With “AGUCCAGCCUGAGCUGGACAAAAGCAUGUACAUGAGGAUCACCCAUGUUCAUGUACAAGCUUUUUGCUCGUCUUAAG [salish99_208a_r3_028] (puzzle: Sensor for hsa-mir-208a)”, the “apparent KD of MS2 coat protein” value reads like this: under setting [2], 0.606 µM; under setting [3], 0.016 µM; under setting [4], 0.602 µM.

On to “AGUCCAGCCUGAGCUGGACAAAAGCAUGUACAUGAGGAUCACCCAUGUUCAUGUACAAGCUUUUUGCUCGUCUUGCU [salish99_208a_r3_105x] (puzzle: Sensor for hsa-mir-208a)”, for which the “apparent KD of MS2 coat protein” value by setting is: under setting [2], 0.578 µM; under setting [3], 0.0157 µM; under setting [4], 0.68 µM.

Take “AGUCCAGCCUGAGCUGGACAAAAGCAUGUACAUGAGGAUCACCCAUGUUCAUGUACAAGUUUUUUGCUCGUCUUAAA [Zipper 52 - 10] (puzzle: Sensor for hsa-mir-208a)”: the “apparent KD of MS2 coat protein” value turned out to be 0.0384 µM under setting [2], 0.0111 µM under setting [3] and 0.0396 µM under setting [4].

For “AGUCCAGCCUGAGCUGGACAAAAGCAUGUACAUGAGGAUCACCCAUGUUUAUGUACAAGCUUUUUGCUCGUCUUAAA [Zipper 52 - 12] (puzzle: Sensor for hsa-mir-208a)”, the “apparent KD of MS2 coat protein” value by setting is: under setting [2], 0.257 µM; under setting [3], 0.0162 µM; under setting [4], 0.313 µM.

With “AGUCCAGCCUGAGCUGGACAAGAGCAUGUACAUGAGGAUCACCCAUGUCAUGUACAAGCUUUUUGCUCGUCUUAAUA [Zipper 49 - 2] (puzzle: Sensor for hsa-mir-208a)”, the “apparent KD of MS2 coat protein” value reads like this: under setting [2], 0.47 µM; under setting [3], 0.0149 µM; under setting [4], 0.529 µM.

Turning to “AGUCCUGAAUAAAUUAAACAGAGACAUGUACAUGAGGAUCACCCAUGUCAUGUGCAAGUUUUUUGCUCGUCAUAUAA [Sensorship 17 - Jieux - Sensor for hsa-mir-208a] (puzzle: Sensor for hsa-mir-208a)”, the “apparent KD of MS2 coat protein” value reads like this: under setting [2], 0.0137 µM; under setting [3], 0.0107 µM; under setting [4], 0.0149 µM.

Take “AGUGAACAUGAGGAUCACCCAUGUGAGAGAAGUGUAGGAUAUGUGAGGAGCAGAGGAGGGACAGAAGGACAUGGAG [JR_SS!_Sub074] (puzzle: Same State 1)”: the “apparent KD of MS2 coat protein” value under setting [2] worked out at 0.0321 µM, the “apparent KD of MS2 coat protein” value under setting [3] turned out to be 0.038 µM and the “apparent KD of MS2 coat protein” value under setting [4] was determined as 0.0518 µM.

For “AUAAAACACAUGAGGAUCACCCAUGUGGCCGUAGUCGGCACACAGGAUAUCAAGCAACUAGAGCUUGAGAAGGGUGAGACAAAA [Raar] (Eterna round: R96, puzzle: Same State NG 3)”, the “apparent KD of MS2 coat protein” value runs as follows: (input ligand: FMN 200 uM) 0.179 µM; under setting [1], 0.00409 µM; (input ligand: none) 0.25 µM.

“AUAAAACAUGAGGAUCACCCAUGUCAACAAAGUCGAGGAUAUGGGCAAAUAAAAUAAGAACCAGAAGGUGAAUAAU [salish99_ss1_r3_032] (puzzle: Same State 1)”: the “apparent KD of MS2 coat protein” value came out at 0.131 µM under setting [2], 0.0315 µM under setting [3] and 0.146 µM under setting [4].

For the sequence “AUAAAACAUGAGGAUCACCCAUGUCAACAAAUUCGAGGAUAUGGGCAAAUAAAAUAAGAACCAGAAGGCGAAUAAU [salish99_ss1_r3_038] (puzzle: Same State 1)”, the “apparent KD of MS2 coat protein” value runs as follows: under setting [2], 0.0181 µM; under setting [3], 0.104 µM; under setting [4], 0.0861 µM.

With “AUAAACAGGCUAGGAUAUCCGGAAACUACAGGGCACGACCCUGUGGACAUGAGGAUCACCCAUGUGGAGAAGGAGCCACAUGAA [Edlatibi] (Eterna round: R96, puzzle: Same State NG 2)”, the “apparent KD of MS2 coat protein” value runs as follows: (input ligand: FMN 200 uM) 0.0151 µM; under setting [1], 0.108 µM; (input ligand: none) 0.152 µM.

As for “AUAAGAAACACAGGAUAUACCGCACUUAACGCGGUAGAAGGGUGGGACAUGAGGAUCACCCAUGUGGCCCGGGCGCCGGACCGC [Edquzative] (Eterna round: R96, puzzle: Same State NG 1)”, the “apparent KD of MS2 coat protein” value reads like this: (input ligand: FMN 200 uM) 0.556 µM; under setting [1], 0.01 µM; (input ligand: none) 0.122 µM.

For the sequence “AUAAGUUCGAUGCUCGUCUCUCCGUACAAACAUGAGGAUCACCCAUGUGGUCAGGAAGUAGCCCGACCAGUAUGGCC [Leedqu] (puzzle: Sensor for hsa-mir-208a)”, the “apparent KD of MS2 coat protein” value reads like this: under setting [2], 0.029 µM; under setting [3], 0.0246 µM; under setting [4], 0.034 µM.

For “AUAAUACAUGAGGAUCACCCAUGUAAUUUAACUUGUAAGAUCAAGGAUAUCAGCUCGAAUAGAGCUGAGAAGGUGAUCACAUGU [SSNG3/20-A1] (Eterna round: R96, puzzle: Same State NG 3)”, the “apparent KD of MS2 coat protein” value under setting [1] stood at 0.0707 µM.

Consider “AUACAUGAGGAUCACCCAUGUAAUUAAUUAACUAGUAAGAUCUAGGAUAUCAGCUCGUUUAGAGCUGAGAAGGAGAUCACAUGU [SSNG3/21-A3] (Eterna round: R96, puzzle: Same State NG 3)”, for which the “apparent KD of MS2 coat protein” value under setting [1] was 0.0288 µM.
